{
  "source": "patent US6365372",
  "about": "(SAINT LOUIS UNIVERSITY, dated 2002)",
  "key": {"[1]": {"molecular_target": "Gal-CBP227-460 chimera (yeast, UniProt P04386 1-147; P45481 227-460)", "assay": "cell-based or functional assay"}, "[2]": {"molecular_target": "T1, Gal-CBP280-460 chimera (yeast, UniProt P04386 1-147; P45481 280-460)", "assay": "cell-based or functional assay"}, "[3]": {"molecular_target": "T1, Gal-CBP280-460 chimera", "assay": "mammalian two-hybrid assay in HeLa cells"}},
  "data": [
    {"binder": "VP16-clone 11 chimera (other) MTAPPTDVSLGDELHLDGEDVAMAHADALDDFDLDMLGDGDSPGPGFTPHDSAPYGALDMADFEFEQMFTDALGIDEYGGGTSLASASPVPAPTPVLAPSSTQTMLPAPVPSPLPSPASTQTLALAPALAPTLGGSSPSQTLSLGTGNPQGPFPTQTLSLTPASSLVPTPAQTLSLAPGPPLGPTQTLSLAPAPPLAPASPVGPAPAHTLTLAPASSSASLLAPASVQTLTLSPAPVPTLGPAAAQTLALAPASTQSPASQASSLVVSASGAAPLPVTMVSRLPVSKDEPDTLTLRSGPPSPPSTATSFGGPRPRRQPPPPPRSPFYLDSLEEKRKRQRSERLERIFQLSEAHGALAPVYGTEVLDFCTLPQPVASPIGPRSPGPSHPTFWTYTEAAHRA", "values": [
      {"measurement": "ability of the Gal-CBP227-460 chimera to activate transcription of the reporter gene pGal-CAT", "setting": "[1]", "value": "~1.5", "unit": "fold"},
      {"measurement": "transcription of the reporter gene pGal-CAT (relative CAT activity)", "setting": "[2]", "value": "~20", "unit": "fold"}
    ]},
    {"binder": "VP16 activation domain (other, range 412-491; Control without the clone 11 part; also called pVP16) MTAPPTDVSLGDELHLDGEDVAMAHADALDDFDLDMLGDGDSPGPGFTPHDSAPYGALDMADFEFEQMFTDALGIDEYGG", "values": [
      {"measurement": "binding result", "setting": "[3]", "value": "no binding"}
    ]}
  ]
}
